Holding throughout (assay): ITC
Data set [1] concerns the target Jun bZIP R270A;Fos bZIP K148A (human;human, UniProt P05412;P01100 252-315;137-200, R270A|K148A).
In data set [2] the target is Jun-Jun bZIP R261A (human, UniProt P05412 252-315, R261A).
Data set [3] deals with Jun bZIP R261A;Fos bZIP R143A (human;human, UniProt P05412;P01100 252-315;137-200, R261A|R143A).
The target of data set [4] is Jun bZIP R263A;Fos bZIP R155A (human;human, UniProt P05412;P01100 252-315;137-200, R263A|R155A).
Data set [5] has as its target Jun bZIP R261A;Fos bZIP R144A (human;human, UniProt P05412;P01100 252-315;137-200, R261A|R144A).
The target in data set [6] is Jun-Jun bZIP K273A (human, UniProt P05412 252-315, K273A).
Sequence of Jun-Jun bZIP K273A (P05412 252-315 K273A): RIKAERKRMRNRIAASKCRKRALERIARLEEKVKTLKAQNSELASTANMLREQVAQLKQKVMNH
Data set [7] deals with Jun bZIP R272A;Fos bZIP R155A (human;human, UniProt P05412;P01100 252-315;137-200, R272A|R155A).
Sequence of Jun bZIP R272A;Fos bZIP R155A (P05412 252-315 R272A, chain 1 of 2): as the sequence (P05412 252-315 K273A) above, with R21A, A22K counted along it
Sequence of Jun bZIP R272A;Fos bZIP R155A (P01100 137-200 R155A, chain 2 of 2): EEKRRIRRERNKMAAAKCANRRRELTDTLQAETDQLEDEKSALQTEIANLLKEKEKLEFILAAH
Data set [8] deals with Jun bZIP R270A;Fos bZIP R155A (human;human, UniProt P05412;P01100 252-315;137-200, R270A|R155A).
Sequence of Jun bZIP R270A;Fos bZIP R155A (P05412 252-315 R270A, chain 1 of 2): as the sequence (P05412 252-315 K273A) above, with R19A, A22K counted along it
Sequence of Jun bZIP R270A;Fos bZIP R155A (P01100 137-200 R155A, chain 2 of 2): as the sequence (P01100 137-200 R155A, chain 2 of 2) above
Data set [9] has as its target Jun bZIP K273A;Fos bZIP R157A (human;human, UniProt P05412;P01100 252-315;137-200, K273A|R157A).
Data set [10] has as its target Jun bZIP R272A;Fos bZIP R157A (human;human, UniProt P05412;P01100 252-315;137-200, R272A|R157A).
The target in data set [11] is Jun bZIP R270A;Fos bZIP K153A (human;human, UniProt P05412;P01100 252-315;137-200, R270A|K153A).
Sequence of Jun bZIP R270A;Fos bZIP K153A (P05412 252-315 R270A, chain 1 of 2): as the sequence (P05412 252-315 K273A) above, with R19A, A22K counted along it
Sequence of Jun bZIP R270A;Fos bZIP K153A (P01100 137-200 K153A, chain 2 of 2): as the sequence (P01100 137-200 R155A, chain 2 of 2) above, with K17A, A19R counted along it
Data set [12] deals with Jun-Jun bZIP WT (human, UniProt P05412 252-315).
Sequence of Jun-Jun bZIP WT (P05412 252-315): as the sequence (P05412 252-315 K273A) above, with A22K counted along it
For data set [13], the target named is Jun bZIP R261A;Fos bZIP R146A (human;human, UniProt P05412;P01100 252-315;137-200, R261A|R146A).
Sequence of Jun bZIP R261A;Fos bZIP R146A (P05412 252-315 R261A, chain 1 of 2): as the sequence (P05412 252-315 K273A) above, with R10A, A22K counted along it
Sequence of Jun bZIP R261A;Fos bZIP R146A (P01100 137-200 R146A, chain 2 of 2): as the sequence (P01100 137-200 R155A, chain 2 of 2) above, with R10A, A19R counted along it
Data set [14] addresses Jun bZIP K258A;Fos bZIP R155A (human;human, UniProt P05412;P01100 252-315;137-200, K258A|R155A).
Data set [15] addresses Jun bZIP R259A;Fos bZIP K148A (human;human, UniProt P05412;P01100 252-315;137-200, R259A|K148A).
Data set [16] deals with Jun bZIP R270A;Fos bZIP R143A (human;human, UniProt P05412;P01100 252-315;137-200, R270A|R143A).
Sequence of Jun bZIP R270A;Fos bZIP R143A (P05412 252-315 R270A, chain 1 of 2): as the sequence (P05412 252-315 K273A) above, with R19A, A22K counted along it
Sequence of Jun bZIP R270A;Fos bZIP R143A (P01100 137-200 R143A, chain 2 of 2): as the sequence (P01100 137-200 R155A, chain 2 of 2) above, with R7A, A19R counted along it
Data set [17] concerns the target Jun bZIP R272A;Fos bZIP R146A (human;human, UniProt P05412;P01100 252-315;137-200, R272A|R146A).

Sequence of Jun bZIP R270A;Fos bZIP K148A (P05412 252-315 R270A, chain 1 of 2): as the sequence (P05412 252-315 K273A) above, with R19A, A22K counted along it
Sequence of Jun bZIP R270A;Fos bZIP K148A (P01100 137-200 K148A, chain 2 of 2): as the sequence (P01100 137-200 R155A, chain 2 of 2) above, with K12A, A19R counted along it
Sequence of Jun bZIP R259A;Fos bZIP K148A (P05412 252-315 R259A, chain 1 of 2): as the sequence (P05412 252-315 K273A) above, with R8A, A22K counted along it
Sequence of Jun bZIP R259A;Fos bZIP K148A (P01100 137-200 K148A, chain 2 of 2): as the sequence (P01100 137-200 R155A, chain 2 of 2) above, with K12A, A19R counted along it
Sequence of Jun bZIP K273A;Fos bZIP R157A (P05412 252-315 K273A, chain 1 of 2): as the sequence (P05412 252-315 K273A) above
Sequence of Jun bZIP K273A;Fos bZIP R157A (P01100 137-200 R157A, chain 2 of 2): as the sequence (P01100 137-200 R155A, chain 2 of 2) above, with A19R, R21A counted along it
Sequence of Jun bZIP K258A;Fos bZIP R155A (P05412 252-315 K258A, chain 1 of 2): as the sequence (P05412 252-315 K273A) above, with K7A, A22K counted along it
Sequence of Jun bZIP K258A;Fos bZIP R155A (P01100 137-200 R155A, chain 2 of 2): as the sequence (P01100 137-200 R155A, chain 2 of 2) above
Sequence of Jun bZIP R272A;Fos bZIP R157A (P05412 252-315 R272A, chain 1 of 2): as the sequence (P05412 252-315 K273A) above, with R21A, A22K counted along it
Sequence of Jun bZIP R272A;Fos bZIP R157A (P01100 137-200 R157A, chain 2 of 2): as the sequence (P01100 137-200 R155A, chain 2 of 2) above, with A19R, R21A counted along it
Sequence of Jun bZIP R272A;Fos bZIP R146A (P05412 252-315 R272A, chain 1 of 2): as the sequence (P05412 252-315 K273A) above, with R21A, A22K counted along it
Sequence of Jun bZIP R272A;Fos bZIP R146A (P01100 137-200 R146A, chain 2 of 2): as the sequence (P01100 137-200 R155A, chain 2 of 2) above, with R10A, A19R counted along it
Sequence of Jun bZIP R261A;Fos bZIP R143A (P05412 252-315 R261A, chain 1 of 2): as the sequence (P05412 252-315 K273A) above, with R10A, A22K counted along it
Sequence of Jun bZIP R261A;Fos bZIP R143A (P01100 137-200 R143A, chain 2 of 2): as the sequence (P01100 137-200 R155A, chain 2 of 2) above, with R7A, A19R counted along it
Sequence of Jun bZIP R261A;Fos bZIP R144A (P05412 252-315 R261A, chain 1 of 2): as the sequence (P05412 252-315 K273A) above, with R10A, A22K counted along it
Sequence of Jun bZIP R261A;Fos bZIP R144A (P01100 137-200 R144A, chain 2 of 2): as the sequence (P01100 137-200 R155A, chain 2 of 2) above, with R8A, A19R counted along it
Sequence of Jun-Jun bZIP R261A (P05412 252-315 R261A): as the sequence (P05412 252-315 K273A) above, with R10A, A22K counted along it
Sequence of Jun bZIP R263A;Fos bZIP R155A (P05412 252-315 R263A, chain 1 of 2): as the sequence (P05412 252-315 K273A) above, with R12A, A22K counted along it
Sequence of Jun bZIP R263A;Fos bZIP R155A (P01100 137-200 R155A, chain 2 of 2): as the sequence (P01100 137-200 R155A, chain 2 of 2) above

B1: TRE duplex 15-mer (dsDNA)
DNA 1: CGCGTGACTCACCCC
DNA 2: GGGGTGAGTCACGCG
As a reminder, the Kd is the concentration at which binding is half-saturated. A lower Kd goes with higher affinity. As to B1, the Kd was 1900 ± 120 nM in [1]; 380 ± 20 nM in [2]; 1030 ± 50 nM in data set [3]; 3880 ± 90 nM in data set [4]; 1840 ± 80 nM in data set [5]; 6520 ± 750 nM in [6]. Moreover, the dissociation constant (Kd) in data set [7] came out at 2670 ± 130 nM; in data set [8] it was 28900 ± 470 nM; in data set [9], 1300 ± 80 nM; in data set [10], 430 ± 20 nM; in data set [11] it was 1610 ± 150 nM; in [12], 190 ± 20 nM. Further, the Kd in [13] was determined as 1030 ± 20 nM; in data set [14] it was 5380 ± 120 nM; in data set [15], 2260 ± 180 nM; in data set [16] it was 1600 ± 50 nM; in data set [17], 750 ± 100 nM.

(Values after PMC3154423.)
